Results reported in patent US20180155451A1 (published 2018).
Values belong to the binder of their own block, whether it stands above or below them.

Experiments:
[1] = target: T1, FcγRIIb, extracellular domain with C-terminal His tag (human, UniProt P31994 43-217); experiment: Biacore SPR; binding relative to GpH7-A5/GpH7-B3/GpL16-k0 (=100)
T1 construct: extracellular domain; soluble receptor used as Biacore analyte; also called 2b; FcgRIIb
T1 sequence (looked up): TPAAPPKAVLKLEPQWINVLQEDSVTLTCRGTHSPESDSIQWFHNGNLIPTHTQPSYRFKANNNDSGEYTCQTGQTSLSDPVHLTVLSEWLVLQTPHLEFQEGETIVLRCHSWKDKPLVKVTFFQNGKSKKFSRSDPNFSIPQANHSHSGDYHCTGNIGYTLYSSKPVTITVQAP
Description: (§1) The heterodimerized antibodies He Abs in which one of the H chains was introduced with an alteration were assayed for their binding activities to each activating FcγR and inhibitory FcγR according to the method described in Example 4. […] The activating FcγRs in FIGS. 26, 27, 28, and 29 are FcγRIa, FcγRIIa (R), FcγRIIa (H), and FcγRIIIa, respectively.
(§2) Analysis of interaction between objective antibody and the FcγR was carried out using Biacore T100 (GE Healthcare). HBS-EP+ (GE Healthcare) was used as the running buffer, and the measurement temperature was set to 25° C. Chips produced by immobilizing the antigen peptide by the amine coupling method to a Series S Sencor Chip CM5 (GE Healthcare), or alternatively, chips produced by allowing preliminarily biotinylated antigen peptides to interact with and immobilize onto a Series S Sensor Chip SA (certified) (GE Healthcare) were used. Antibodies of interest were captured onto an antigen peptide-immobilized chip, and allowed to interact to each FcγR diluted with running buffer. To regenerate and repeatedly use the chip, the antibodies captured on the chip were washed off by reacting 10 mM glycine-HCl, pH 1.5.

FcγRIa = target: T2, FcγRIa (human, UniProt P12314 16-292); experiment: SPR (Biacore), antibody captured on antigen peptide, FcγR as analyte; relative to GpH7-A5/GpH7-B3/GpL16-k0 = 100
T2 construct: extracellular domain; Soluble extracellular domain with C-terminal His tag, used as analyte in Biacore; also called FcgRI; 1a; not shown: His tag attached to the C terminus
T2 sequence (P12314 16-292): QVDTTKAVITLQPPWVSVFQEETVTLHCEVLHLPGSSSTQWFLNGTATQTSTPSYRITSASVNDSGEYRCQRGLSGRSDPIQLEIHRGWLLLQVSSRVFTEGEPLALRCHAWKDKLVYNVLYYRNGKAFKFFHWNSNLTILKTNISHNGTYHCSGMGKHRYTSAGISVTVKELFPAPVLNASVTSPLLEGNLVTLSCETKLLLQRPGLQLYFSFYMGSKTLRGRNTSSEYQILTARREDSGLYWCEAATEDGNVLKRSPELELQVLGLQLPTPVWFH

FcγRIIb = target: T3, FcγRIIb (human, UniProt P31994 43-217); experiment: as above
T3 construct: extracellular domain; Soluble extracellular domain with C-terminal His tag, used as analyte in Biacore; also called FcgRIIb; 2b; not shown: His tag attached to the C terminus
T3 sequence (looked up): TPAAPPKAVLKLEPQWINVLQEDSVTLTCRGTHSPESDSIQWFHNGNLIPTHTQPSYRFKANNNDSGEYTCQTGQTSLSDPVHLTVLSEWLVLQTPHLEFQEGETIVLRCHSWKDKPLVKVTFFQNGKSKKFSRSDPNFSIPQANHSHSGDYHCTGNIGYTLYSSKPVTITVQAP

[2] = target: T4, FcγRIIIa extracellular domain with C-terminal His tag (human, UniProt P08637 17-208); experiment: SPR (Biacore); ratio of He/Con_3a (FcγRIIIa) to He/Con_2b (FcγRIIb)
T4 construct: extracellular domain; also called FcgRIIIa; 3a; not shown: His tag at the C terminus
T4 sequence (P08637 17-208): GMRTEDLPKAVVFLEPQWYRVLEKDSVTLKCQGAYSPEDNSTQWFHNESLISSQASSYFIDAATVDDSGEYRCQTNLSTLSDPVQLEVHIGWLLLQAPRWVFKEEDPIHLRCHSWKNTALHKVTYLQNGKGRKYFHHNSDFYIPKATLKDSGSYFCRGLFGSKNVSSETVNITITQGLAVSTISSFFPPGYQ
Description: as §1, §2

[3] = target: T4, FcγRIIIa extracellular domain with …; experiment: SPR (Biacore), antibody captured, FcγR as analyte; He Ab binding / GpH7-A5/GpH7-B3/GpL16-k0 binding x 100
Description: as §1, §2

[4] = target: T5, FcγRIIa R (FcγRIIa, allotype R, Arg at position 131), extracellular domain with C-terminal His tag (human, UniProt P12318 34-217); experiment: Biacore SPR; binding relative to GpH7-A5/GpH7-B3/GpL16-k0 (=100)
T5 construct: extracellular domain; soluble receptor used as Biacore analyte; also called 2aR; FcgRIIa R
T5 sequence (looked up): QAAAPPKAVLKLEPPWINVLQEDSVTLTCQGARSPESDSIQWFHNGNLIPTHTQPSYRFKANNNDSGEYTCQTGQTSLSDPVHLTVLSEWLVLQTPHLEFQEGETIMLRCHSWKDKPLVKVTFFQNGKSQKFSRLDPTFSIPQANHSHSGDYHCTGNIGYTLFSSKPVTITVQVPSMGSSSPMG
Description: as §1, §2

B2: GpH7-A5/GpH7-B3 variant S239_07I/GpL16-k0 (antibody, human IgG1, kappa)
heavy 1: not shown
heavy 2: not shown
light: DIVMTQSPLSLPVTPGEPASISCQASESLVHSNRNTYLHWYLQKPGQSPQLLIYKVSNRFSGVPDRFSGSGSGTDFTLKISRVEAEDVGVYYCSQNTHVPPTFGQGTKVEIERTVAAPSVFIFPPSDEQLKSGTASVVCLLNNFYPREAKVQWKVDNALQSGNSQESVTEQDSKDSTYSLSSTLTLSKADYEKHKVYACEVTHQGLSSPVTKSFNRGEC
notes: Heterodimerized IgG1; mutation in the GpH7-B3 H chain only; also called He Ab
He/Con_1a (FcγRIa): 97.8 % of control
He/Con_2b (FcγRIIb): 107 % of control

B3: GpH7-A5/GpH7-B3 variant L328_11K/GpL16-k0 (antibody, human IgG1, kappa)
heavy 1: not shown
heavy 2: not shown
light: DIVMTQSPLSLPVTPGEPASISCQASESLVHSNRNTYLHWYLQKPGQSPQLLIYKVSNRFSGVPDRFSGSGSGTDFTLKISRVEAEDVGVYYCSQNTHVPPTFGQGTKVEIERTVAAPSVFIFPPSDEQLKSGTASVVCLLNNFYPREAKVQWKVDNALQSGNSQESVTEQDSKDSTYSLSSTLTLSKADYEKHKVYACEVTHQGLSSPVTKSFNRGEC
notes: position is EU numbering; also called He Ab
He_3a/2b (IIIa/IIb) [2]: 4.46 ratio
He/Con_3a (IIIa binding) [3]: 33.5 relative, control = 100

B6: GpH7-A5/GpH7-B3 variant S239_06M/GpL16-k0 (antibody, human IgG1, kappa)
heavy 1: not shown
heavy 2: not shown
light: DIVMTQSPLSLPVTPGEPASISCQASESLVHSNRNTYLHWYLQKPGQSPQLLIYKVSNRFSGVPDRFSGSGSGTDFTLKISRVEAEDVGVYYCSQNTHVPPTFGQGTKVEIERTVAAPSVFIFPPSDEQLKSGTASVVCLLNNFYPREAKVQWKVDNALQSGNSQESVTEQDSKDSTYSLSSTLTLSKADYEKHKVYACEVTHQGLSSPVTKSFNRGEC
notes: as for B2
He/Con_1a (FcγRIa): 99 % of control
He/Con_2b (FcγRIIb): 101 % of control

B7: GpH7-A5/GpH7-B3 variant L328_12R/GpL16-k0 (antibody, human IgG1, kappa)
heavy 1: not shown
heavy 2: not shown
light: DIVMTQSPLSLPVTPGEPASISCQASESLVHSNRNTYLHWYLQKPGQSPQLLIYKVSNRFSGVPDRFSGSGSGTDFTLKISRVEAEDVGVYYCSQNTHVPPTFGQGTKVEIERTVAAPSVFIFPPSDEQLKSGTASVVCLLNNFYPREAKVQWKVDNALQSGNSQESVTEQDSKDSTYSLSSTLTLSKADYEKHKVYACEVTHQGLSSPVTKSFNRGEC
notes: as for B3
He_3a/2b (IIIa/IIb) [2]: 3.53 ratio
He/Con_3a (IIIa binding) [3]: 32.7 relative, control = 100

More lines, now with the values ahead:

He/Con_2b (IIb binding) [1]: 11.3 % of control
B1: heterodimerized antibody GpH7-A5/GpH7-B3 variant S267_12R/GpL16-k0 (antibody, human IgG1, kappa)
heavy 1: not shown
heavy 2: not shown
light: DIVMTQSPLSLPVTPGEPASISCQASESLVHSNRNTYLHWYLQKPGQSPQLLIYKVSNRFSGVPDRFSGSGSGTDFTLKISRVEAEDVGVYYCSQNTHVPPTFGQGTKVEIERTVAAPSVFIFPPSDEQLKSGTASVVCLLNNFYPREAKVQWKVDNALQSGNSQESVTEQDSKDSTYSLSSTLTLSKADYEKHKVYACEVTHQGLSSPVTKSFNRGEC
notes: He Ab: anti-glypican-3 IgG1, alteration in one H chain only; also called He Ab

He/Con_2aR (IIaR binding) [4]: 98.2 % of control
He/Con_2b (IIb binding) [1]: 116 % of control
B4: heterodimerized antibody GpH7-A5/GpH7-B3 variant A327_01G/GpL16-k0 (antibody, human IgG1, kappa)
heavy 1: not shown
heavy 2: not shown
light: DIVMTQSPLSLPVTPGEPASISCQASESLVHSNRNTYLHWYLQKPGQSPQLLIYKVSNRFSGVPDRFSGSGSGTDFTLKISRVEAEDVGVYYCSQNTHVPPTFGQGTKVEIERTVAAPSVFIFPPSDEQLKSGTASVVCLLNNFYPREAKVQWKVDNALQSGNSQESVTEQDSKDSTYSLSSTLTLSKADYEKHKVYACEVTHQGLSSPVTKSFNRGEC
notes: as for B1

He/Con_2aR (IIaR binding) [4]: 99.9 % of control
He/Con_2b (IIb binding) [1]: 108 % of control
B5: heterodimerized antibody GpH7-A5/GpH7-B3 variant S239_03V/GpL16-k0 (antibody, human IgG1, kappa)
heavy 1: not shown
heavy 2: not shown
light: DIVMTQSPLSLPVTPGEPASISCQASESLVHSNRNTYLHWYLQKPGQSPQLLIYKVSNRFSGVPDRFSGSGSGTDFTLKISRVEAEDVGVYYCSQNTHVPPTFGQGTKVEIERTVAAPSVFIFPPSDEQLKSGTASVVCLLNNFYPREAKVQWKVDNALQSGNSQESVTEQDSKDSTYSLSSTLTLSKADYEKHKVYACEVTHQGLSSPVTKSFNRGEC
notes: as for B1

He/Con_2aR (IIaR binding) [4]: 99.7 % of control
He/Con_2b (IIb binding) [1]: 108 % of control
B8: heterodimerized antibody GpH7-A5/GpH7-B3 variant Y300_19Q/GpL16-k0 (antibody, human IgG1, kappa)
heavy 1: not shown
heavy 2: not shown
light: DIVMTQSPLSLPVTPGEPASISCQASESLVHSNRNTYLHWYLQKPGQSPQLLIYKVSNRFSGVPDRFSGSGSGTDFTLKISRVEAEDVGVYYCSQNTHVPPTFGQGTKVEIERTVAAPSVFIFPPSDEQLKSGTASVVCLLNNFYPREAKVQWKVDNALQSGNSQESVTEQDSKDSTYSLSSTLTLSKADYEKHKVYACEVTHQGLSSPVTKSFNRGEC
notes: as for B1
